Publication PMC11211670 (mLife, 2024)

Legend:
[1] = molecular target: the molecule itself; assay: cryo-EM structure; 7 uM ecCTPS incubated with 0.58 mM DON, 1 mM CTP, 0.5 mM NADH and 10 mM MgCl2 for 30 min at 0 °C; single particle analysis of filaments, D2 symmetry, mask on the central tetramer
[2] = molecular target: the molecule itself; assay: cryo-electron micrographs of filaments; purified ecCTPS^helix12+ in the product state (CTP); filaments seen in cryo samples

B1: Escherichia coli CTP synthase (cytidine triphosphate synthase) (enzyme, UniProt P0A7E5 1-545, looked up)
chain: MTTNYIFVTGGVVSSLGKGIAAASLAAILEARGLNVTIMKLDPYINVDPGTMSPIQHGEVFVTEDGAETDLDLGHYERFIRTKMSRRNNFTTGRIYSDVLRKERRGDYLGATVQVIPHITNAIKERVLEGGEGHDVVLVEIGGTVGDIESLPFLEAIRQMAVEIGREHTLFMHLTLVPYMAASGEVKTKPTQHSVKELLSIGIQPDILICRSDRAVPANERAKIALFCNVPEKAVISLKDVDSIYKIPGLLKSQGLDDYICKRFSLNCPEANLSEWEQVIFEEANPVSEVTIGMVGKYIELPDAYKSVIEALKHGGLKNRVSVNIKLIDSQDVETRGVEILKGLDAILVPGGFGYRGVEGMITTARFARENNIPYLGICLGMQVALIDYARHVANMENANSTEFVPDCKYPVVALITEWRDENGNVEVRSEKSDLGGTMRLGAQQCQLVDDSLVRQLYNAPTIVERHRHRYEVNNMLLKQIEDAGLRVAGRSGDDQLVEIIEVPNHPWFVACQFHPEFTSTPRDGHPLFAGFVKAASEFQKRQAK
notes: CTP synthase of Escherichia coli, full-length gene in pET28a; In the cryo-EM sample it forms tetramers that stack into filaments; also called ecCTPS; wild-type ecCTPS; source: E. coli Transetta (DE3), purified (Ni-Agarose, Superose 6 Increase)
B1 was tested, and the “stoichiometry N” value [1] was 4.

B2: ecCTPS with an inserted hCTPS helix 12 (ecCTPS^helix12+) (enzyme, Escherichia coli | human)
chain: MTTNYIFVTGGVVSSLGKGIAAASLAAILEARGLNVTIMKLDPYINVDPGTMSPIQHGEVFVTEDGAETDLDLGHYERFIRTKMSRRNNFTTGRIYSDVLRKERRGDYLGATVQVIPHITNAIKERVLEGGEGHDVVLVEIGGTVGDIESLPFLEAIRQMAVEIGREHTLFMHLTLVPYMAASGEVKTKPTQHSVKELLSIGIQPDILICRSDRAVPANERAKIALFCNVPEKAVISLKDVDSIYKIPGLLKSQGLDDYICKRFSLNCPEANLSEWEQVIFEEANPVSEVTIGMVGKYIELPDAYKSVIEALKHGGLKNRVSVNIKLIDSQDVETRGVEEEPVRYHEAWQILKGLDAILVPGGFGYRGVEGMITTARFARENNIPYLGICLGMQVALIDYARHVANMENANSTEFVPDCKYPVVALITEWRDENGNVEVRSEKSDLGGTMRLGAQQCQLVDDSLVRQLYNAPTIVERHRHRYEVNNMLLKQIEDAGLRVAGRSGDDQLVEIIEVPNHPWFVACQFHPEFTSTPRDGHPLFAGFVKAASEFQKRQAK
notes: E. coli CTP synthase, the stretch before the insertion; Helix 12 of human CTPS1, inserted; H346 and W349 of the variant correspond to H355 and W358 of hCTPS1; E. coli CTP synthase, the stretch after the insertion; It ends with HHHHHH, which is written here as the tag; also called engineered ecCTPS
B2: binds [2].
